In the supplement of paper PMC7125110:
± gives the standard error. For part of these data: Variants at the floor of the assay were thinned out.

B1: glmS ribozyme (parent)
chain: AUAAAAGCGCCAGAACUACAGAAAUGUAGUUGACGAGGAGGAGGUUUAUCGAAUUUUCGGCGGAUGCCUCCAAA

Legend:
Details in all cases: with glucosamine-6-phosphate
[1] = variants of: B1; experiment: kcat; higher = faster cleavage; RNA array
Outline: (§1)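 Weighted Michaelis–Menten fits across concentrations supplied kcat and KM, based on kobs from one- or two-exponential decay fits to normalised per-tile medians. The data came from barcoded ribozyme variants transcribed in situ by E. coli RNA polymerase on sequenced MiSeq chips and tracked at 37 °C by a hybridised Cy3 probe. Glucosamine-6-phosphate (40 μM to 10 mM) in HEPES/KCl/Mg(OAc)2 buffer was flowed in.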

[2] = variants of: B1; experiment: KM; higher = weaker cofactor use; RNA array
Outline: as §1

[3] = variants of: B1; experiment: self-cleavage kobs at 40 uM GlcN6P; higher = faster cleavage; RNA array
Outline: as §1

[4] = variants of: B1; experiment: self-cleavage kobs at 160 uM GlcN6P; higher = faster cleavage; RNA array
Outline: as §1

[5] = variants of: B1; experiment: self-cleavage kobs at 640 uM GlcN6P; higher = faster cleavage; RNA array
Outline: as §1

[6] = variants of: B1; experiment: self-cleavage kobs at 2500 uM GlcN6P; higher = faster cleavage; RNA array
Outline: as §1

[7] = variants of: B1; experiment: self-cleavage kobs at 10000 uM GlcN6P; higher = faster cleavage; RNA array
Outline: as §1

A15G A53C
kcat [1]: 0.00857 ± 0.0011 s⁻¹ | KM [2]: 1860 ± 340 µM | self-cleavage kobs at 40 uM GlcN6P [3]: 0.000205 ± 3.7e-05 s⁻¹ | self-cleavage kobs at 160 uM GlcN6P [4]: 0.000653 ± 0.00021 s⁻¹ | self-cleavage kobs at 640 uM GlcN6P [5]: 0.00195 ± 0.00035 s⁻¹ | self-cleavage kobs at 2500 uM GlcN6P [6]: 0.00522 ± 0.0012 s⁻¹ | self-cleavage kobs at 10000 uM GlcN6P [7]: 0.00742 ± 0.0015 s⁻¹

A14U C50A U54G G62A C68U
kcat [1]: 3.85e-05 ± 1.7e-05 s⁻¹ | self-cleavage kobs at 640 uM GlcN6P [5]: 7.62e-05 ± 2.5e-05 s⁻¹

C16U G29A
kcat [1]: 0.0165 ± 0.0058 s⁻¹ | self-cleavage kobs at 40 uM GlcN6P [3]: 0.00117 ± 0.00016 s⁻¹ | self-cleavage kobs at 160 uM GlcN6P [4]: 0.00189 ± 0.00052 s⁻¹ | self-cleavage kobs at 640 uM GlcN6P [5]: 0.0124 ± 0.0019 s⁻¹ | self-cleavage kobs at 2500 uM GlcN6P [6]: 0.0121 ± 0.0031 s⁻¹ | self-cleavage kobs at 10000 uM GlcN6P [7]: 0.0147 ± 0.0029 s⁻¹

C16A A64G
kcat [1]: 0.00134 ± 0.00022 s⁻¹ | KM [2]: 2060 ± 520 µM | self-cleavage kobs at 40 uM GlcN6P [3]: 3.87e-05 ± 8.2e-06 s⁻¹ | self-cleavage kobs at 160 uM GlcN6P [4]: 9.99e-05 ± 1.3e-05 s⁻¹ | self-cleavage kobs at 640 uM GlcN6P [5]: 0.000277 ± 3.5e-05 s⁻¹ | self-cleavage kobs at 2500 uM GlcN6P [6]: 0.000757 ± 7.7e-05 s⁻¹ | self-cleavage kobs at 10000 uM GlcN6P [7]: 0.00113 ± 0.00015 s⁻¹

A14U U56A
kcat [1]: 0.00382 ± 0.0017 s⁻¹ | self-cleavage kobs at 40 uM GlcN6P [3]: 0.000146 ± 3.2e-05 s⁻¹ | self-cleavage kobs at 160 uM GlcN6P [4]: 0.00029 ± 4.9e-05 s⁻¹ | self-cleavage kobs at 640 uM GlcN6P [5]: 0.000692 ± 0.00012 s⁻¹ | self-cleavage kobs at 2500 uM GlcN6P [6]: 0.00186 ± 0.00034 s⁻¹ | self-cleavage kobs at 10000 uM GlcN6P [7]: 0.00407 ± 0.00084 s⁻¹

A14U C50U C68A
kcat [1]: 3.75e-05 ± 1.4e-05 s⁻¹ | self-cleavage kobs at 10000 uM GlcN6P [7]: < 1e-05 s⁻¹

C16A G32U
kcat [1]: 0.000568 ± 9.6e-05 s⁻¹ | KM [2]: 6390 ± 1500 µM | self-cleavage kobs at 640 uM GlcN6P [5]: 5.63e-05 ± 1e-05 s⁻¹ | self-cleavage kobs at 2500 uM GlcN6P [6]: 0.000143 ± 2.8e-05 s⁻¹ | self-cleavage kobs at 10000 uM GlcN6P [7]: 0.000363 ± 6.7e-05 s⁻¹

A15C A39C
kcat [1]: 0.00146 ± 0.00042 s⁻¹ | KM [2]: 3400 ± 1700 µM | self-cleavage kobs at 40 uM GlcN6P [3]: 2.08e-05 ± 6.5e-06 s⁻¹ | self-cleavage kobs at 160 uM GlcN6P [4]: 0.000119 ± 1.5e-05 s⁻¹ | self-cleavage kobs at 640 uM GlcN6P [5]: 0.000171 ± 2.6e-05 s⁻¹ | self-cleavage kobs at 2500 uM GlcN6P [6]: 0.000622 ± 9.2e-05 s⁻¹ | self-cleavage kobs at 10000 uM GlcN6P [7]: 0.00112 ± 8.5e-05 s⁻¹

G29A A48U
kcat [1]: 0.000327 ± 8.3e-05 s⁻¹ | self-cleavage kobs at 10000 uM GlcN6P [7]: 2.73e-05 ± 1.1e-05 s⁻¹

A15C C16A C68G
kcat [1]: 2.65e-05 ± 7.2e-06 s⁻¹ | self-cleavage kobs at 2500 uM GlcN6P [6]: 2.94e-05 ± 1.3e-05 s⁻¹

A15U U55G
kcat [1]: 0.00423 ± 0.0019 s⁻¹ | self-cleavage kobs at 40 uM GlcN6P [3]: 0.000109 ± 1.3e-05 s⁻¹ | self-cleavage kobs at 160 uM GlcN6P [4]: 0.000152 ± 4.6e-05 s⁻¹ | self-cleavage kobs at 640 uM GlcN6P [5]: 0.00134 ± 0.00029 s⁻¹ | self-cleavage kobs at 2500 uM GlcN6P [6]: 0.00204 ± 0.00063 s⁻¹ | self-cleavage kobs at 10000 uM GlcN6P [7]: 0.00356 ± 0.00054 s⁻¹

C16U C71A
kcat [1]: 0.00166 ± 0.00032 s⁻¹ | KM [2]: 298 ± 95 µM | self-cleavage kobs at 40 uM GlcN6P [3]: 0.000186 ± 2.6e-05 s⁻¹ | self-cleavage kobs at 160 uM GlcN6P [4]: 0.000667 ± 0.00016 s⁻¹ | self-cleavage kobs at 640 uM GlcN6P [5]: 0.00168 ± 0.0003 s⁻¹ | self-cleavage kobs at 2500 uM GlcN6P [6]: 0.00113 ± 0.00027 s⁻¹ | self-cleavage kobs at 10000 uM GlcN6P [7]: 0.00173 ± 0.00034 s⁻¹

C16A U30C
kcat [1]: 2.39e-05 ± 3.2e-06 s⁻¹ | self-cleavage kobs at 2500 uM GlcN6P [6]: 2.62e-05 ± 9e-06 s⁻¹ | self-cleavage kobs at 10000 uM GlcN6P [7]: 2.12e-05 ± 8.1e-06 s⁻¹

A15U G59A
kcat [1]: 1.53e-05 ± 4.8e-06 s⁻¹ | self-cleavage kobs at 40 uM GlcN6P [3]: < 1e-05 s⁻¹

C16A U56A
kcat [1]: 0.0016 ± 0.00026 s⁻¹ | KM [2]: 3180 ± 890 µM | self-cleavage kobs at 40 uM GlcN6P [3]: 2.51e-05 ± 9.6e-06 s⁻¹ | self-cleavage kobs at 160 uM GlcN6P [4]: 9.31e-05 ± 3e-05 s⁻¹ | self-cleavage kobs at 640 uM GlcN6P [5]: 0.000261 ± 7.2e-05 s⁻¹ | self-cleavage kobs at 2500 uM GlcN6P [6]: 0.000618 ± 0.00011 s⁻¹ | self-cleavage kobs at 10000 uM GlcN6P [7]: 0.00131 ± 0.0002 s⁻¹

G29U G32A
kcat [1]: 0.00151 ± 0.00013 s⁻¹ | KM [2]: 2210 ± 350 µM | self-cleavage kobs at 40 uM GlcN6P [3]: 3.81e-05 ± 1.5e-05 s⁻¹ | self-cleavage kobs at 160 uM GlcN6P [4]: 0.000105 ± 2.4e-05 s⁻¹ | self-cleavage kobs at 640 uM GlcN6P [5]: 0.000328 ± 6.3e-05 s⁻¹ | self-cleavage kobs at 2500 uM GlcN6P [6]: 0.000738 ± 0.00012 s⁻¹ | self-cleavage kobs at 10000 uM GlcN6P [7]: 0.00128 ± 0.00016 s⁻¹
